Source: article PMC10248797

Legend:
[1] = target: Ndel1 with the C-terminal coiled coil (256-291) deleted, N-terminal HaloTag and C-terminal 6X-His tag (UniProt Q9GZM8); assay: pull-down; depletion of 5 nM dynein from solution by Ndel1 (0-600 nM) coupled to Magne HaloTag beads; 45 min; binding buffer 30 mM Hepes pH 7.4, 2 mM magnesium acetate, 1 mM EGTA, 10% glycerol, 1 mM DTT, 1 mg/ml casein, 0.1% NP-40, 1 mM ADP, 36 mM KCl; SDS-PAGE densitometry of the supernatant; one-site fit with Bmax set to 1
Ndel1 with the C-terminal coiled coil (256-291) deleted, N-terminal HaloTag and C-terminal 6X-His tag, sequence (Q9GZM8 other isoform, or with tags, fused parts or gaps): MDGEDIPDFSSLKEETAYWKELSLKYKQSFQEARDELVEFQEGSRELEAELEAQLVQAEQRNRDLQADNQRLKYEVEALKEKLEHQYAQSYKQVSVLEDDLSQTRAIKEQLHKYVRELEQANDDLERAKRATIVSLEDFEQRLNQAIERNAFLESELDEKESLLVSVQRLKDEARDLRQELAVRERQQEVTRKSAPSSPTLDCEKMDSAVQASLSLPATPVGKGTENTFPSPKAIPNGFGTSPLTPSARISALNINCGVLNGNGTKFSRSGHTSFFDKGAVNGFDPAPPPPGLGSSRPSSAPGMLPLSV

[2] = target: Full-length phosphomimetic Ndel1 (S198D; T219D; S231D; S242D) with N-terminal HaloTag and C-terminal 6X-His tag (UniProt Q9GZM8); assay: as above
Full-length phosphomimetic Ndel1 (S198D; T219D; S231D; S242D) with N-terminal HaloTag and C-terminal 6X-His tag, sequence (Q9GZM8 whole entry S198D/T219D/S231D/S242D): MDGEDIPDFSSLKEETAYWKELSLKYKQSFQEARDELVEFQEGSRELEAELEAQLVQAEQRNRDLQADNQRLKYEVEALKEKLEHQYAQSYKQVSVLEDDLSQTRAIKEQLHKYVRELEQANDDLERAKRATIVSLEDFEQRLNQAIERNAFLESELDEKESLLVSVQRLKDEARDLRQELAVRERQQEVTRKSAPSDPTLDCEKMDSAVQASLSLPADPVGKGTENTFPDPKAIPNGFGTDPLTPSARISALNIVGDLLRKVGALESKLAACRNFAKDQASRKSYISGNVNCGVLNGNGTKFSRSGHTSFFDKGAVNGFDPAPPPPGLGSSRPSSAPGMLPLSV

[3] = target: N-terminal coiled coil of Ndel1 (1-192) with N-terminal HaloTag and C-terminal 6X-His tag (UniProt Q9GZM8); assay: as above
N-terminal coiled coil of Ndel1 (1-192) with N-terminal HaloTag and C-terminal 6X-His tag, sequence (Q9GZM8 1-192): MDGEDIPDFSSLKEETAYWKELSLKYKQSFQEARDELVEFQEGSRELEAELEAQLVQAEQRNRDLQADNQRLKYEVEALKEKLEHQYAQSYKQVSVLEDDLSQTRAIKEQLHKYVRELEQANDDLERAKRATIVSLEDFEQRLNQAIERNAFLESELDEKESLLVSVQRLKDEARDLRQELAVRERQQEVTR

[4] = target: Full-length Ndel1 with N-terminal HaloTag and C-terminal 6X-His tag (UniProt Q9GZM8); assay: as above
Full-length Ndel1 with N-terminal HaloTag and C-terminal 6X-His tag, sequence (Q9GZM8 whole entry): as the sequence (Q9GZM8 whole entry S198D/T219D/S231D/S242D) above, with D198S, D219T, D231S, D242S counted along it

[5] = target: Lis1 with N-terminal HaloTag (UniProt P43034); assay: pull-down; depletion of dynein from solution by Lis1 (0-600 nM) coupled to magnetic beads via its N-terminal HaloTag; SDS-PAGE densitometry of the supernatant; one-site fit with Bmax set to 1
Lis1 with N-terminal HaloTag, sequence (P43034 whole entry): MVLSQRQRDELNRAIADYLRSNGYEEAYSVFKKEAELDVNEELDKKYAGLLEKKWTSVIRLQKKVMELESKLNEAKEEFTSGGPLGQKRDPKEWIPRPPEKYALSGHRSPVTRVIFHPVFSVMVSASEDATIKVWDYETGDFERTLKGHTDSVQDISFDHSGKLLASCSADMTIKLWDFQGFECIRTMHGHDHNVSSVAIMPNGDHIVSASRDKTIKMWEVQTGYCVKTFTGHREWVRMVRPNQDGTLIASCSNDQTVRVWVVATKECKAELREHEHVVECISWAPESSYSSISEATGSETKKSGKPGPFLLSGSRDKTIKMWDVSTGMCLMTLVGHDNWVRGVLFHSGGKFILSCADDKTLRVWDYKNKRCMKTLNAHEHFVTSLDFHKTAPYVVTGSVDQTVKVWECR

- Kd [1]: 55.1 nM
- Kd [2]: 15.8 nM
- Kd [3]: 79.3 nM
- Kd [4]: 32.8 nM
- Kd [5]: 101 nM
Substance: SNAP-tagged, recombinant full-length human cytoplasmic dynein-1 with all associated accessory chains (from UniProt Q14204 1-4646; O43237 1-492; P63172 1-113; Q9NP97 1-96; P63167 1-89) (complex)
